Results on two molecules are retold here after article PMC10779143, “Collagen-like Osteoclast-Associated Receptor (OSCAR)-Binding Motifs Show a Co-Stimulatory Effect on Osteoclastogenesis in a Peptide Hydrogel System” (International Journal of Molecular Sciences, 2023).

[ ]: non-standard residue; d: D form. Hyp = O=C(O)[C@@H]1C[C@@H](O)CN1

For this assay, the target named is T1, Recombinant human OSCAR-Fc chimera (human).
T1 construct: extracellular region of human osteoclast-associated receptor (OSCAR), Asp19-Asn229 of NP_573399; In the functional rows the OSCAR of the test system is the endogenous mouse receptor of Raw 264.7 cells, not this construct; also called osteoclast-associated receptor; source: bought: R&D Systems, Bio-Techne, 9955-OS
Put plainly: SPR; Biacore T200, CM5 chip; OSCAR-Fc immobilised by amine coupling to 6880 RU; peptides flowed as analytes at 30 µL/min, 25 °C, 10 mM PBS, 150 mM NaCl, 0.05% Tween20, pH 7.4; OP1_Hyp 5000-0 nM (Langmuir 1:1 kinetic fit), OP1_Pro 40,000-0 nM (steady-state analysis). The conditions noted are these: both partners purified.

B1: OP1_Pro (peptide)
chain: Ac-GP[Hyp]GP[Hyp]GP[Hyp]GAPGPAGFAGP[Hyp]GP[Hyp]GP[Hyp]-NH2
SMILES: CC(=O)NCC(=O)N1CCC[C@H]1C(=O)N1C[C@H](O)C[C@H]1C(=O)NCC(=O)N1CCC[C@H]1C(=O)N1C[C@H](O)C[C@H]1C(=O)NCC(=O)N1CCC[C@H]1C(=O)N1C[C@H](O)C[C@H]1C(=O)NCC(=O)N[C@@H](C)C(=O)N1CCC[C@H]1C(=O)NCC(=O)N1CCC[C@H]1C(=O)N[C@@H](C)C(=O)NCC(=O)N[C@@H](Cc1ccccc1)C(=O)N[C@@H](C)C(=O)NCC(=O)N1CCC[C@H]1C(=O)N1C[C@H](O)C[C@H]1C(=O)NCC(=O)N1CCC[C@H]1C(=O)N1C[C@H](O)C[C@H]1C(=O)NCC(=O)N1CCC[C@H]1C(=O)N1C[C@H](O)C[C@H]1C(N)=O
As to B1, the Kd (as a rule, the free concentration of one partner at which half of the binding sites on the other are occupied at equilibrium, for simple one-to-one binding) was 19.5 µM.

B2: OP1_Hyp (peptide)
chain: Ac-GP[Hyp]GP[Hyp]GP[Hyp]GA[Hyp]GPAGFAGP[Hyp]GP[Hyp]GP[Hyp]-NH2
SMILES: CC(=O)NCC(=O)N1CCC[C@H]1C(=O)N1C[C@H](O)C[C@H]1C(=O)NCC(=O)N1CCC[C@H]1C(=O)N1C[C@H](O)C[C@H]1C(=O)NCC(=O)N1CCC[C@H]1C(=O)N1C[C@H](O)C[C@H]1C(=O)NCC(=O)N[C@@H](C)C(=O)N1C[C@H](O)C[C@H]1C(=O)NCC(=O)N1CCC[C@H]1C(=O)N[C@@H](C)C(=O)NCC(=O)N[C@@H](Cc1ccccc1)C(=O)N[C@@H](C)C(=O)NCC(=O)N1CCC[C@H]1C(=O)N1C[C@H](O)C[C@H]1C(=O)NCC(=O)N1CCC[C@H]1C(=O)N1C[C@H](O)C[C@H]1C(=O)NCC(=O)N1CCC[C@H]1C(=O)N1C[C@H](O)C[C@H]1C(N)=O
As to B2, the Kd was 2.63 µM.
